Test results as given in patent US20170051047A1 (CANGENE, published 2017).
Where two headings read alike, the source gives them in different places.

Experiments:
[1] = target: T1, Clostridium difficile toxin A (whole toxin A) (Clostridium difficile, UniProt P16154 1-2710)
[2] = target: T1, Clostridium difficile toxin A (whole …); assay: cell-based or functional assay
[3] = target: T1, Clostridium difficile toxin A (whole …); remark: listed apart in the source
[4] = target: T2, Clostridium difficile toxin B (whole) (Clostridium difficile, UniProt P18177 2-2366); assay: Western blot
T2 construct: mature

| Binder | Kd [1] [nM] | koff [1] [s⁻¹] | kon [1] [M⁻¹ s⁻¹] | EC50 Value (µg/mL), in vitro toxin A neutralization [2] [µg/mL] | Kd [3] [nM] | koff [3] [s⁻¹] | kon [3] [M⁻¹ s⁻¹] | binding result [4] |
| --- | --- | --- | --- | --- | --- | --- | --- | --- |
| CDR-huCAN20G2 (antibody, V domains shown) VH: QVQLVQSGSELKKPGASVKVSCKASGYTFTNQGMNWVRQAPGQGLEWMGWINTNTGEPTYAQGFTGRFVFSLDTSVSTAYLQISSLKAEDTAVYYCYVNYDYYTMDFWGQGTTVTVSS VL: DIQMTQSPSSLSASVGDRVTITCRASSSVISTYLNWYQQKPGKAPKLLIYSTSSLQSGVPSRFSGSGSGTDFTLTISSLQPEDFATYYCLQYHRSPRTFGGGTKVEIK | 0.8 | 5.41e-05 | 67600 |  |  |  |  |  |
| CAN20G1 (antibody, V domains shown) VH: QIQLVQSGPELKKPGETVKISCKASGYTFTNDGMNWVKQAPGKGLKWMGWINTNTGEPTYVEEFKGRFAFSLETSASTAYLQINNLKNEDTATYFCYVNYDYYTMDCWGQGTSVTVSS VL: QVVLTQSPAIMSASLGERVTMTCTASSSVISSYLHWYQQKPGSSPKLWIYSTSTLASGVPARFSGSGSGTSYSLTISSMEAEDAATYYCLQYHRSPRTFGGGTKLEIK |  |  |  | 0.17 | 1.79 | 0.000219 | 123000 | no binding (tested: 1 µg/ml) |
| AVA-huCAN20G2 (antibody, V domains shown) VH: QIQLVQSGPELKKPGETVKISCKASGYTFTNQGMNWVKQAPGKGLKWMGWINTNTGEPTYTADFTGRFAFSLETSVSTAYLQINSLKAEDTATYFCYVNYDYYTMDFWGQGTLVTVSS VL: DIQMTQSPSSLSASVGDRVTITCSASSSVISTYLNWYQQKPGKAPKVLIYSTSSLHSGVPSRFSGSGSGTDFTLTISSLQPEDFATYYCLQYHRSPRTFGQGTKVEIKR | 1.33 | 9.02e-05 | 54500 |  |  |  |  |  |
| HE-huCAN20G2 (antibody, V domains shown) VH: QIQLVQSGPELKKPGETVKISCKASGYTFTNQGMNWVKQAPGKGLKWMGWINTNTGEPTYTADFTGRFAFSLETSVSTAYLQINSLKAEDTATYFCYVNYDYYTMDFWGQGTLVTVSS VL: DVQLTQSPSIMSASLGDRVTMTCTASSSVISTYLHWYQQKPGSSPKLWIYSTSTLASGVPPRFSGSGSGTDYSLTISSMEPEDAATYYCLQYHRSPRTFGGGTKVEIKR | 0.332 | 3.14e-05 | 93900 |  |  |  |  |  |
| CAN20G8 (antibody, V domains shown) VH: QIQLVQSGPELKKPGETVKISCKASGYAFTNDGMNWVKQAPGKGLKWMGWINTNTGEPTYAEEFKGRFAFSLETSASTAYLQINNLKNEDTATYFCYVNYDYYTMDCWGQGTSVTVSS VL: QVVLTQSPAIMSASLGERVTMTCTASSSVISSYLHWYQQKPGSSPKLWIYSTSILASGVPARFSGSGSGTSYSLTISSMEAEDAATYYCLQYHRSPRTFGGGTKLEIK |  |  |  | 0.137 | 1.65 | 0.000216 | 131000 | no binding (tested: 1 µg/ml) |
| CAN20G2 (antibody, V domains shown) VH: QIQLVQSGPEVKKPGETVKISCKASGYTFTNQGMNWVKQAPGKGLKWMGWINTNTGEPTYTEEFKGRFAFSLETSASTAYLQINNLKNEDTATYFCYVNYDYYTMDFWGQGTSVTVSS VL: QVVLTQSPAIMSASLGDRVTMTCTASSSVISTYLHWYQQKPGSSPKLWIYSTSTLASGVPPRFSGSGSGTSYSLTISSMEAEDAATYYCLQYHRSPRTFGGGTKLEIK |  |  |  | 0.0101 |  |  |  |  |
| CAN20G5 (antibody, V domains shown) VH: QIQLVQSGPELKKPGETVKISCKASGYSFTNSGMNWVKEAPGKGLKWMGWINTNTGEPTYAEEFMGRFAFSLETSASTAYLQINNLKNEDTATYFCYVNYDYYTIDYWGQGTSVTVSS VL: QIVLTQSPAIMSASLGERVTMTCTASSSVYSTYLHWYQQKPGSSPKLWIYSTSNLASGVPARFSGSGSGTSYSLTISSMEAEDAATYYCHQYHRSPRTFGGGTKLEIK |  |  |  | 0.13 | 2.01 | 0.000168 | 83800 | no binding (tested: 1 µg/ml) |
